Test results taken from patent US20260176701A1 (BRIGHAM AND WOMEN S HOSPITAL, published 2026).

Tests used:
[1] = target: T1, recombinant human ORF1p (LINE-1 open reading frame 1 protein, L1RP) (human, UniProt Q9UN81 1-338); assay: screen of cloned llama nanobody candidates for binding to ORF1p
T1 construct: Expressed in E. coli, tag cleaved, monodisperse homotrimer; Immobilized on the CM5 chip in SPR; also called trimeric ORF1p
T1 sequence: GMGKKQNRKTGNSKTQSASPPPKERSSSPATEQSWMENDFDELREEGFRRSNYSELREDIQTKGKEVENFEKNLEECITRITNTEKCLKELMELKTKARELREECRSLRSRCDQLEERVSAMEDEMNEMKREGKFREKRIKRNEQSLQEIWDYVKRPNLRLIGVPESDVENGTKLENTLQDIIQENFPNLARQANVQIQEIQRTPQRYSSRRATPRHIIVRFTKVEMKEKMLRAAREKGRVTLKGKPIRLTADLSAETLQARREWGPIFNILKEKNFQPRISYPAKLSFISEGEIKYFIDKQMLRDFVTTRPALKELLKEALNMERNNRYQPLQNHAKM

[2] = target: T1, recombinant human ORF1p (LINE-1 open …); assay: Simoa sandwich calibration curves, panels titled capture/detector; AEB against recombinant ORF1p (axis 0.001-1000 pg/mL, log-log); dotted line = limit of detection
[3] = target: T1, recombinant human ORF1p (LINE-1 open …); assay: ELISA screen of conditioned medium, then modified Simoa with Nb-5 or 4H1 beads and ORF1p
Text: GenScript's MonoRab™ immunization and B cell cloning platform was used with purified, recombinant human ORF1p trimers. The 50 best-performing clones, determined by ELISA screening of the conditioned cell medium at multiple dilutions, were selected and used in a modified Simoa assay with two different detector beads (Nb-5, which is the C5 nanobody clone described above, or 4H1 (Sigma-Aldrich)). The ten best clones (62H12, 64C6, 33A8, 61A11, 36D12, 34H7, 50E9, 34C5, 55A6, and 42D10) all yielded up to 5-fold higher signal-to-noise than our best existing reagent, Ab6, (FIG. 13A).

[4] = target: T1, recombinant human ORF1p (LINE-1 open …); assay: Simoa sandwich, recombinant ORF1p at 40 pg/mL in diluent buffer, signal/background heat map; capture on the x axis, detector on the y axis
Description: ORF1p Simoa assays. Simoa assays were performed on an HD-X Analyzer (Quanterix Corp.), with all assay reagents and consumables loaded onto the instrument according to the manufacturer's instructions. 250,000 capture beads and 250,000 helper (non-conjugated) beads were used in each Simoa assay. A three-step assay configuration was used for the first- and second-generation assays, consisting of a 15-minute target capture step (incubation of capture beads with 100 μL sample), 5-minute incubation with detector reagent (0.3 μg/mL for both first- and second-generation assays), and 5-minute incubation with streptavidin-β-galactosidase (150 pM for first-generation assay; 300 pM for second-generation assays). The beads were washed with System Wash Buffer 1 (Quanterix Corp.) after each assay step. Upon the final wash cycle, the beads were loaded together with the fluorogenic enzyme substrate resorufin β-D-galactopyranoside into a 216,000-microwell array, which was subsequently sealed with oil. Automated imaging and counting of “on” and “off” wells and calculation of average enzyme per bead (AEB) were performed by the instrument. Calibration curves were fit using a 4PL fit with a 1/y² weighting factor, and the limit of detection (LOD) was determined as three standard deviations above the blank.
Signal/background was also determined for a number of the pairs by Simoa using recombinant ORF1p protein in diluent buffer; the results are shown in FIG. 15. When the rabbit monoclonal antibodies were used as capture and detector, the background was high. The best combinations were the rabbit monoclonal antibodies as capture/Ab6 detector; Nb5-5 capture/rabbit monoclonal antibodies detector; and 4H1 capture/rabbit monoclonal antibody detector pairs.

B1: anti-ORF1 Nanobody 1 (Nb1) (VHH)
VHH: DVQLVESGGGLVQAGESLRLSCAASGRTLSSLNMAWFRQVPGKERDFVSLISRSGSTDYVHSVRGRFTISRDNAKNTVYLEMNSLKPEDTAVYYCAADDNYNGRYPFRDEYEYWGQGTQVTVSH
notes: Llama nanobody
Q: Does B1 bind [1]?
A: Result: binds

B2: MT1038 (other)
nanobody concatemer: QVHLVESGGKLVQAGESLKLSCEVSGRTFSISGAGWFRQAPGKEREFVAAITWTGGYPYYDASVKGRFTISREDPDNTVYLSMNSLKPEDTAVYYCATRRAGDLDFSYAQQGRYDNWGQGTQVTVSGGGGSGGGGSGGGGSGGGGSDAAARDAAARDAAARGGGGSGGGGSGGGGSGGGGSGSMAQVHLVESGGKLVQAGESLKLSCEVSGRTFSISGAGWFRQAPGKEREFVAAITWTGGYPYYDASVKGRFTISREDPDNTVYLSMNSLKPEDTAVYYCATRRAGDLDFSYAQQGRYDNWGQGTQVTVSCGSGRCGSGRCGSGRCGSGRC
modifications: biotinylated on the C-terminal cysteine residues when used as detector
notes: also called Nb9-Nb9-7Cys anti-ORF1 Nb dimer 13 (long linker v2); 9-9-cys(long2)
Q: Does B2 bind [2]?
A: Result: binds

B3: MT1036 (other)
nanobody concatemer: DVQLVESGGGLVQAGGSLRLSCAASGRTDDIYTMGWFRQGPGKEREFVAVISWSITRRSSITHYADSVKGRFTISGENAENTVYLQMNTLKPEDTAVYYCAAKTGYSGSMSSYQDYDSWGQGTQVTVSGGGGSGGGGSGGGGSGGGGSDAAARDAAARDAAARGGGGSGGGGSGGGGSGGGGSGSMAQVHLVESGGKLVQAGESLKLSCEVSGRTFSISGAGWFRQAPGKEREFVAAITWTGGYPYYDASVKGRFTISREDPDNTVYLSMNSLKPEDTAVYYCATRRAGDLDFSYAQQGRYDNWGQGTQVTVSCGSGRCGSGRCGSGRCGSGRC
modifications: biotinylated on the C-terminal cysteine residues when used as detector
notes: also called Nb2-Nb9-7Cys anti-ORF1 Nb dimer 11 (long linker v2); 2-9-cys(long2)
Q: Does B3 bind [2]?
A: Result: binds

B4: MT1032 (bispecific antibody)
nanobody concatemer: QVQLVESGGDLVQAGGSLRLSCAVSGGTSSNYGMGWFRQAPGKEREFVSSISWSGSRTLYSDSVKGRFTISRDNAKNTVDLQMNSLKPEDTAVYYCTAVREYRDYPQRDNFDYWGQGTQVTVSGGGGSGGGGSGGGGSGGGGSMAQVQLVESGGDLVQAGGSLRLSCAVSGGTSSNYGMGWFRQAPGKEREFVSSISWSGSRTLYSDSVKGRFTISRDNAKNTVDLQMNSLKPEDTAVYYCTAVREYRDYPQRDNFDYWGQGTQVTVSCGSGRCGSGRCGSGRCGSGRC
modifications: biotinylated on the C-terminal cysteine residues when used as detector
notes: also called Nb5-Nb5-7Cys anti-ORF1 Nb dimer 7 (short linker); Nb 5-5-cys (short)
Q: Does B4 bind [2]?
A: Result: binds

B5: 50E9 (antibody, V domains shown)
VH: QSVEESGGRLVTPGTPLTLTCTVSGFSLSRHYMSWVRQAPGKGLEWIGIIYDDDNRDHASWAKGRFTISRTSTTVDLKITSPTTEDTATYFCARVYASYGYALNLWGQGTLVIVSS
VL: ALVMTQTPPSVSAAVGGTVTINCQASESITNWLAWYQQKPGQPPKLLIYDASKLASGVSSRFSGSGSGTQFTLTISRVQCDDAATYYCQQGYTWNNIDNVFGGGTEVVVK
notes: Rabbit monoclonal antibody; also called 50E9-2
Q: Does B5 bind [3]?
A: Result: binds

B6: 62H12 (antibody, V domains shown)
VH: QSVKESGGRLVTPGTPLTLICTVSGFSLSRYAVGWVRQAPGKGLEWIGYIWSGGYTDYANWAKGRFTISKTSTTVDLKITSPTTEDTATYFCAREGDSDDYIYLNLWGPGTLVTVSS
VL: ALVMTQTPSSVSAAVGGTVTINCQASESISSYLAWYQQKSGQPPKLLIYRASTLASGVPSRFKGSGSGTEFTLTIGDLECADAATYYCQQGYTSFNVDKAFGGGTEVVVK
notes: Rabbit monoclonal antibody (GenScript MonoRab); also called 62H12-1; 62H2
Q: Does B6 bind [4]?
A: Result: binds

B7: MT1037 (bispecific antibody)
nanobody concatemer: QVQLVESGGDLVQAGGSLRLSCAVSGGTSSNYGMGWFRQAPGKEREFVSSISWSGSRTLYSDSVKGRFTISRDNAKNTVDLQMNSLKPEDTAVYYCTAVREYRDYPQRDNFDYWGQGTQVTVSGGGGSGGGGSGGGGSGGGGSDAAARDAAARDAAARGGGGSGGGGSGGGGSGGGGSGSMAQVHLVESGGKLVQAGESLKLSCEVSGRTFSISGAGWFRQAPGKEREFVAAITWTGGYPYYDASVKGRFTISREDPDNTVYLSMNSLKPEDTAVYYCATRRAGDLDFSYAQQGRYDNWGQGTQVTVSCGSGRCGSGRCGSGRCGSGRC
modifications: biotinylated on the C-terminal cysteine residues when used as detector
notes: also called Nb5-Nb9-7Cys anti-ORF1 Nb dimer 12 (long linker v2); 5-9-cys(long2)
Q: Does B7 bind [2]?
A: Result: binds

B8: MT1035 (bispecific antibody)
nanobody concatemer: QVQLVESGGDLVQAGGSLRLSCAVSGGTSSNYGMGWFRQAPGKEREFVSSISWSGSRTLYSDSVKGRFTISRDNAKNTVDLQMNSLKPEDTAVYYCTAVREYRDYPQRDNFDYWGQGTQVTVSGGGGSGGGGSGGGGSGGGGSDAAARDAAARDAAARGGGGSGGGGSGGGGSGGGGSMAQVQLVESGGDLVQAGGSLRLSCAVSGGTSSNYGMGWFRQAPGKEREFVSSISWSGSRTLYSDSVKGRFTISRDNAKNTVDLQMNSLKPEDTAVYYCTAVREYRDYPQRDNFDYWGQGTQVTVSCGSGRCGSGRCGSGRCGSGRC
modifications: biotinylated on the C-terminal cysteine residues when used as detector
notes: also called Nb5-Nb5-7Cys anti-ORF1 Nb dimer 10 (long linker v2); 5-5-cys(long2)
Q: Does B8 bind [2]?
A: Result: binds
